Measurements published in the DeepSol protein solubility set.

Experiment: soluble on expression in E. coli; label from the status in PepcDB or PDB records

| Sequence | soluble on expression in E. coli |
| --- | --- |
| MDAEEKMGVELSSPSAIMEHARRLYMSKDYRSLESLFGRCLWKSYNLDLWMLYIEYVRKVSQKKFKLFEVYEFTLGQFENYWDSYGLFKEYIEELGKIEDEQTRIEKIRNGYMRALQTPMGSLSELWKDFENFELELNKITGKKIVGDTLPLFQSSFQRYQQIQPLIRGWSVKNAARLIDLEMENGMKLGGRPHESRMHFIHNYILDSFFYAEEVYFFYSEYLIGIGQKEKAKKVVERGIEMSDGMFLSLYYGLVMDEEAVYGDLKRKYSMGEAESAEKVFSKELDLLRINHLNYVLKKRGLELFRKLFIELGNEGVGPHVFIYCAFIEYYATGSRATPYNIFSSGLLKHPDSTLLKEEFFLFLLRIGDEENARALFKRLEKTSRMWDSMIEYEFMVGSMELFRELVDQKMDAIKADAILPPLPPREHNVQMEGILGRYHCFLDSFNFLDLKIRDNSRLLDEFMENLPKISQQNNVLSNLRVEKVISLLKSVQ | soluble |
| MGSDKIHHHHHHMVRQRMTGKERREQLISIGRAVFAERGFDGASVEEIAARANVSKPVVYEHFGGKEGLYAVVIDREMVKLEAMITGSLQHGRSRYRIEQAVLALLTYVEDETDGFLILVRDMRPGERRSYGTLLNDATTQVSHILGNAFTRSGLNAEYANLYGQALVGMVSMTAQWWLDERTPPKEEVAAHIVNLCWNGLTGMEADPKLTPISSAEGAIFGQEKESEA | not soluble |
| MSLLVIPAIDLQSGRCVRLKQGRFDQVTQFSVFPIERALHFAKLGAKRLHVVDLDGARSGKMQQLELICSMQKTGIPIQAGGGIRSIEQALECSNAGISQLVIGSLAITNPDLTIQIIEKIKPENIVLALDVRVDTKVPLLAINGWQNNSTSSLWEVVSYYENYGIKNILCTDIACDGMMNGPNFDLYQQAVEYFPQIAWQASGGVRHMQDITTLNSLGISAVILGLMLYQDHMNLEELLEGHHHHHH | soluble |
| EEQIMRRNEDSWLIDGATPLEDVMRALNIHTFPRDENYETIGGFMMYMLRKIPKKTDFVLYDKYKFEIIDTENFRIDQLMVSFRK | soluble |
| MGSDKIHHHHHHMSRAIPAMPLAPASAALDLSKVKTLVCEPSLPIRQGIRLALNNVGIRDITEATTFLAAHQACKEGDHDFLLLNQEIETNDTAFMVRELRSGALGRDPFILTVMLLSSREEPKVRSAIDCGPDDLLLIPFAPDQLMNRLKAQIERRKPFVVTHDYIGPDRRAAPRPGATSATQFQVPNPVRARGTNVPRDRYDRMKQESIVTISVERIKRLAATMDWECNALTVSAREGRMTPESTYRSLLKLEQVTAELSLRVTKQLGHSTETIDSLTQYLPPVEDGSEQCKLFRC | not soluble |
| MSNDGDLNIDNLITRLLEVRGCRPGKPVTMSEAEIRALCHKSREIFLSQPILLELEAPLKICGDIHGQYNDLLRLFEYGGFPPEANYLFLGDYVDRGKQSLETICLLLAYKVKYPENFFLLRGNHECASINRIYGFYDECKRRFSIKLWKTFTDCFNCLPIAALIDEKIFCCHGGLSPDLQNMEQIRRVMRPTDVPDTGLLCDLLWSDPDKDVTGWGENDRGVSFTFGPDVVAKFLNRHDLDLICRAHQVVEDGYEFFAKRQLVTLFSAPNYCGEFDNAGGMMSVDETLMCSFQILKPSEKKAKYQYQGMNSGRPAVGGGRPGTTAGKK | not soluble |
| EADYKQATALELATLVREKKVTSEELVKIALAITKRENPTLNAVITLREEAALTEAKALQDTGQPFLGVPLLLKGLGQSLKGESNTNGFGFLQDQVAGGTSTFVKALQNAGFIIIGQTNYPELGWKNISDSKLYGVSVNPWNPNHYSGGSSGGAGASVAAAFVPIASGSDAGGSIRIPASWTGTVGLKPSRGVIIGNSNSAKGQTVHFGLSRTVADTNALFETLLTKKDLPAGHLSQAQPIAYTTESPAGTPISAEAKEAVAEAVAFLKDQGYTLVEVKHPVDGERLMKNYYTVAAGSAGIADFMARQKLKRPLERNDVELLTWALFQTGKNITSEETTAAWTDIALQAQAMDEFYQQYPILLTPTTAATAPSIDNPLLKPEHAAQMEKIDQLSPAEQKQLIYDQWLTAFTYTPFTQQANLFGHPALSVPTYVSKEGLPLGIQFNSALNEDRTLLQLGALFENNHK | not soluble |
| MSDAIVVGAGPNGLAAAVALARRGLKVTVLEAADEIGGGTRTSELTVPGLLHDHCSAVHPLGVGSPFLRTLGLERYGVTWAWPDVDLAHPLDGGRAGVLVRSMERTVRGLGPDGPAWERLFAPLAEDFDALTEDLLRPVPHLPAHPVELARFGLRALQPATTVARRWRGAEARALFAGAAAHLMHPLTGPTSSAVGLMLVGAAHRFGWPVARGGSRTITDALAALLAQLGGTIETGVRVDSLDQLAAARIVMLDTAPGAAARICGDRLPGRVRSAYEGWRHGPAAFKVDLAVQDGIPWTHEACRRAGTVHLGGTLEEVVRTEAQTAGGRMPERPFVLVGQQYLADPSRSRGDVHPIWAYAHVPHGYPGDATEAVLRQIERFAPGFRDRIVGIAARSTAELARSNTNFVGGDIVGGANTARQVALRPRVALDPYSTGIPGVYLCSAATPPGAGVHGMCGANAARSALRYLDRLEHHHHHH | not soluble |
| SLDMQHRIRQLFQASIETKQQALEVLPPYIEQASLVMVNALLNEGKILSCGNGGSAGDAQHFSSELLNRFERERPSLPAVALTTDSSTITSIANDYSYNEVFSKQIRALGQPGDVLLAISTSGNSANVIQAIQAAHDREMLVVALTGRDGGGMASLLLPEDVEIRVPSKITARIQEVHLLAIHCLCDLIDRQLFGSEEEG | soluble |
| MSLGFKEYYRAFPTYTKIESKEYKGRVETLGPILIKYMNKNRGKVLDLACGVGGFSFFLEDLGFDVVGLDNNPEMIEAAKRYAEKRSSKVNFVVGDAKNLPFENNSFDYVIFIDSIFHFTPSELNQVFKEVKRVIKPEGRFLIYFTDLRELLPNLKERLVIGEKYWVNRITTDTSERIATIEFKSEDDEFRVEFNIWGKTGVELLAKLYFTKEAEEKVGGYSYLIVYNPKEGHHHHHH | soluble |
| HDDGLPAFRYSAELLGQLQLPSVALPLNDDLFLYGRDAEAFDLEAYLALNAPALRDKSEYLEHWSGYYSINPKVLLTLMVMQSGPLGAPDERALAAPLGRLSAKRGFDAQVRDVLQQLSRRYYGFEEYQLRQAAARKAVGEDGLNAASAALLGLLREGAKVSAVQGGNPLGAYAQTFQRLFGTPAAELLQPSNRVARQLQAKAALAPPSNLMQLPWRQGYSWQPNGAHSNTGSGYPYSSFDASYDWPRWGSATYSVVAAHAGTVRVLSRCQVRVTHPSGWATNYYHMDQIQVSNGQQVSADTKLGVYAGNINTALCEGGSSTGPHLHFSLLYNGAFVSLQGASFGPYRINVGTSNYDNDCRRYYFYNQSAGTTHCAFR | not soluble |
| MAHHHHHHMWRLRSPGPCAGHVARPAAFTACRVVVGSSGATSADAASFRTTSAGAALVVAHRRKSYHFFMNLDDPDATRRRIEEDLDRLASDEKKDTTAYLHSLLNLALSHYQRGDFISARDMADYTHQKALVHNSKSSLIYFTATTCAHCAEALAKEYEAHLQRKDEQSHVSATLTPEPSVVFSARRAIKKLRADAERYRGIAHRVYHRPDMAFMRGSGGGGSGRWRSSARHAEGRDTRHTWADDSSNNGVDEDYIPHMYGPRWQDRRKRPEHAEMKHYYKHQCGTSPSSRGKTQWNVPK | not soluble |
| MKMNEEKAVVVFSGGQDSTTCLFWAKKQFGEVEAVTFDYGQRHRREIDVAQAIADELGVRHTVLDLSLLGQLAPNALTRRDIAIEQKEGELPTTFVDGRNLLFLSFAAVFAKQRGARHIVTGVCETDFSGYPDCRDVFIKSLNVTLNLAMDYEFVIHTPLMWLTKAETWKLADELGALEFIRTKTLTCYNGIIADGCGECPACVLRKRGLDEYLREKEGVESR | not soluble |
| MAEITFKGGPVTLVGQEVKVGDQAPDFTVLTNSLEEKSLADMKGKVTIISVIPSIDTGVCDAQTRRFNEEAAKLGDVNVYTISADLPFAQARWCGANGIDKVETLSDHRDMSFGEAFGVYIKELRLLARSVFVLDENGKVVYAEYVSEATNHPNYEKPIEAAKALVK | soluble |
| MSDFGNPLKKFKLVFLGEQSVGKTSLITRFMYDSFDNTYQATIGIDFLSKTMYLEDRTVRLQLWDTAGQERFRSLIPSYIRDSTVAVVVYDITNSNSFHQTSKWIDDVRTERGSDVIIMLVGNKTDLSDKRQVTTDEGERKAKELNVMFIETSAKAGYNVKQLFRRIAGALPGIIKDDPVEPPNVVTMDPIRQRQIVTDEGSCWC | not soluble |
| MNYSHPISLKTLVQEDDIGVNAPIIHQSVIARLTAGLYPLYQSKKIPFEPLPETMLTEGYSSPVPDVLLYDHQTEEAKVIIEVCQNSGLKHDTSKIVKLIEDNAYGILEGFVFNYKTQQWLRYRLGDGGVATNSSFSEVLQVDLNTFV | soluble |
| MVADVNLKTGEVGTRIAEINSNSDKRYVQRIIDEPKFSLMANLALSDADKSSTVVHFKASVRKGEKNLTNCIRDGLQEHFGKKIVSLAGQFIIQTGKARLHVMPDFPGCPFENNAEVDKWLNYFEMSAPLICATVMHSYDPGHNLRLEHTHCYSDHGDAGHYHYDVTPETVSYEGWFAPASKIYRIDEIKNR | not soluble |
| GMKEIRIILMGTGNVGLNVLRIIDASNRRRSAFSIKVVGVSDSRSYASGRNLDISSIISNKEKTGRISDRAFSGPEDLMGEAADLLVDCTPASRDGVREYSLYRMAFESGMNVVTANKSGLANKWHDIMDSANQNSKYIRYEATVAGGVPLFSVLDYSILPSKVKRFRGIVSSTINYVIRNMANGRSLRDVVDDAIKKGIAESNPQDDLNGLDAARKSVILVNHIFGTEYTLNDVEYSGVDERSYNANDRLVTEVYVDDRRPVAVSRIISLNKDDFLMSIGMDGLGYQIETDSNGTVNVSDIYDGPYETAGAVVNDILLLSKVQK | soluble |
| MGSDKIHHHHHHMDLASRLLLLLEVSELGSFVKVSELRNVNRSAISKQIGKLEKELGVHLLNRTTRSLSLTAAGSEMVNQAKQLRDLLNNSKRLAENYHSEPRGELKISSSTLFGRQYVQQAVLKFQAQYPDIRIELLLEDRIVDLVGEGFDIGFRIGEPKESNLIAKQIAQNRLLIVAAPSFIEKHGKPTTIPKLESLPAVVYSAQGLLIDKIKYLDNTGNEAFIQLNTAYKVNEVEMLINTAVAGEMLTVTTAQMIENEVLEGKLIPIMTHINLADYGTFYAVYPHRNSPLKTKLFIETLKEVVGDKRPIWETRIPGFDKMYNNKT | not soluble |
| MVESKATLEEYVQTQLLQNWIYNDGAYLSLAFDAMCEGNFDRLCELDWQLSATKVARESREGSFKLGVRLLKIFIRYETHTLLTAYQQAIAEKRVQGYFPIVFAMVAQAMGLSKADTLYAFYYNAAVGVITNGVKLIPLSQMDGQDILFDLRGSLVQAVELSLDPDEEWLGAATLANDIRAMQHEVLYTRLYMSLEHHHHHH | not soluble |
| MGSDKIHHHHHHMNKEAIESLLIHVIGTDVIVNEVRPIGGGNTSRAFAVKSSQGNFFIKTNRAGLVDMFEKEVKNLELLRKVLPSNTPEVVGYGTIDHVSYFILKLIEPGRRVADFWSDFGRTLSELHRVTGNTFGLEYDNYIGSLPQSNKQNSNWVDFFVNERIWPQAKKAEKVLGTEIVGMISKLSDRLPDLLTQSRPTLLHGDLWSGNFTLNQAGTVCLVDPATYYGNREIEIAFTKLFGGFEDEFYAAYSEVLPLDKGFFDTRADIYNLYPLLVHVNLFGGWYVASVRETLKRFV | not soluble |
